Test results as given in PMC7098737.
Several values for one entry are separate records, joined by “and”; a condition that tells them apart may be missing. Equal entries are not always repeated.

Columns and labels:
[1] = biological target: M2-Strep-tag II fusion protein (Strep II tag, 6xHis tag, full-length human MBL2) (human) (UniProt P11226); test: native gel or EMSA; native PAGE of purified M1 and of purified M2; oligomer size from the apparent molecular weight against the monomer's size by SDS-PAGE; for M2 the names trimer, tetramer, pentamer count subunits of three 32-kDa chains
[2] = biological target: recombinant human mannan-binding lectin M1 (6xHis, MAKT, human IgG1 Fc C220-G446, Arg linker, human MBL2 neck and CRD 81-228) (human) (UniProt P11226); test: as above

| stoichiometry N [1] | stoichiometry N [2] [monomers] | Substance |
| --- | --- | --- |
| 4 and 3 and 5 | – | M2-Strep-tag II fusion protein (Strep II tag, 6xHis tag, full-length human MBL2) (from UniProt P11226 21-248) (natural protein) |
| – | 6 | recombinant human mannan-binding lectin M1 (6xHis, MAKT, human IgG1 Fc C220-G446, Arg linker, human MBL2 neck and CRD 81-228) (from UniProt P11226 101-248) (Fc fusion) |
